We go through two molecules from article PMC11960969, “Mdga2 deficiency leads to an aberrant activation of BDNF/TrkB signaling that underlies autism-relevant synaptic and behavioral changes in mice” (PLOS Biology, 2025).

Assay [1] has as its target T1, recombinant TrkB protein (full-length human TrkB, His) (human, UniProt Q16620 32-822).
T1 construct: TrkB, human, full-length cDNA in the pcDNA6-His vector; also called purified human TrkB protein; human TrkB protein; source: HEK293T, purified (His-tag Protein Purification Kit)
Kind of assay: pull-down; purified human TrkB protein incubated with GST-fused MDGA2-L1, MDGA2-L2 or GST and pulled down with Glutathione Sepharose 4B; immunoblot. The note with it: both partners purified.

Assay [2] concerns the target T1, recombinant TrkB protein (full-length …). As to the kind of experiment: SPR; TrkB immobilised on a Biacore CM5 chip by amine coupling; recombinant MDGA2 protein or MDGA2-P2 peptide flowed over at a series of concentrations; Biacore T100 Evaluation software. The note with it: both partners purified.

T1 sequence (Q16620 32-822): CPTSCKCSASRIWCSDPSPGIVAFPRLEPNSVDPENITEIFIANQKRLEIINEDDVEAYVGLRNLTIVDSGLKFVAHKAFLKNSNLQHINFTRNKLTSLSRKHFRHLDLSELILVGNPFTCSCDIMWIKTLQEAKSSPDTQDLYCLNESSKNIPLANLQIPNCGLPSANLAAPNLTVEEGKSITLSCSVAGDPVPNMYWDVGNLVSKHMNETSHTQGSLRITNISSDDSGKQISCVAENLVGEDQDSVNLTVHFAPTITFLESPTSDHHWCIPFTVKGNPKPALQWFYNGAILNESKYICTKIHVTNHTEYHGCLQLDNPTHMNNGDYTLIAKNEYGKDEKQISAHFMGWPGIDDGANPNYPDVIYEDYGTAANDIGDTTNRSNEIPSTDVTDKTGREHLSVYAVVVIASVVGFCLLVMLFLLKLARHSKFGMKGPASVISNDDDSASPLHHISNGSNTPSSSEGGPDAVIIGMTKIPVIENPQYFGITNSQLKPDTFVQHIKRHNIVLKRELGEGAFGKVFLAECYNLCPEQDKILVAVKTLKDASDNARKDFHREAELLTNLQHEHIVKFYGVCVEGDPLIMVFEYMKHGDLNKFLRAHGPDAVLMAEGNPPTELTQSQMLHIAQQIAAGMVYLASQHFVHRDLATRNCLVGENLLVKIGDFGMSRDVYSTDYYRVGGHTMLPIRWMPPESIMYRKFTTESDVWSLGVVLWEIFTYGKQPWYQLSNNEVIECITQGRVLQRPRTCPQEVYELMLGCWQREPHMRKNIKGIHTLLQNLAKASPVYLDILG

B1: GST-fused MDGA2-L2 (MDGA2 aa 787-833) (domain or fragment, human, UniProt Q7Z553 787-833, looked up)
chain: NADRSGSKEGFYMYIETSRPRLEGEKARLLSPVFSIAPKNPYGPTNT
notes: MDGA2, human, residues 787-833 (L2, second segment of the M1 half of the MAM domain); also called GST-tagged L2; source: bacteria, purified (Glutathione Sepharose 4B)
With B1, in assay [1], the binding result is reported as “binds”.

B2: MDGA2-P2 peptide (aa 812-833), label not stated (peptide)
peptide: KARLLSPVFSIAPKNPYGPTNT
notes: MDGA2, human, residues 812-833 (P2); The methods tell the synthesis only of the biotin-labeled peptide; also called MDGA2-derived peptide; source: synthetic peptide
Turning to B2, the Kd in assay [2] stood at 9.2 nM.
